T1: human PHA blasts expressing LAG-3 (Homo sapiens, UniProt P18627)
T1 construct: To human PBMCs stimulated with 2 μg/mL of PHA (manufactured by Sigma-Aldrich) for three days; endogenous in cells; host or cells: human PBMCs stimulated with PHA for three days (PHA blasts)
T1 sequence (P18627 23-525): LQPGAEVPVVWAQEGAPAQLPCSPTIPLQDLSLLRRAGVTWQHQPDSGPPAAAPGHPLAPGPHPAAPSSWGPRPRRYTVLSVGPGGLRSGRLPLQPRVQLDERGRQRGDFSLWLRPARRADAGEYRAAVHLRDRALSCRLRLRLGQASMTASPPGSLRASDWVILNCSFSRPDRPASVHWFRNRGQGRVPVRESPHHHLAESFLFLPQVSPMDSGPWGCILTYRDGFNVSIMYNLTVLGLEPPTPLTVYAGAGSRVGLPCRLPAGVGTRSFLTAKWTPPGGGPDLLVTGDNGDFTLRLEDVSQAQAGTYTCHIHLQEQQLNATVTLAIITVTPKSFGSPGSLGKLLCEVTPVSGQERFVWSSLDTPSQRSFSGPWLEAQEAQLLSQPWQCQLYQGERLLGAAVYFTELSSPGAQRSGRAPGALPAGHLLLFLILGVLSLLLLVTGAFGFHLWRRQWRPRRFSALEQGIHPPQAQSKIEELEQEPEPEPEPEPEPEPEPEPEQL

B1: rLA204: anti-human LAG-3 rat monoclonal antibody; heavy chain variable region SEQ ID No: 2, light chain variable region SEQ ID No: 4 (antibody, listed as Rattus norvegicus, V domains shown)
VH: EVELVESGGGLVQPGRSMKLSCAASGFTFRTYGMAWVRQAPTKGLEWVASISTGGGSTYYRDSVKGRFTISRDNAKSTLYLQMDSLRSEDTATYYCTTDLINYPGIGGFAFWGQGTLVTVSS
VL: NIVMTQSPKSMSISVGDRVTMNCKASQNVYNNIAWYQQKPGKSPKLLIYYASNRYTGVPDRFTGSGSGTDFTLTIHSVQAEDAAFYYCQRLYNSPPTFGGGTKLELKRA
B2: rLA1264: anti-human LAG-3 rat monoclonal antibody; heavy chain variable region SEQ ID No: 18, light chain variable region SEQ ID No: 20 (antibody, listed as Rattus norvegicus, V domains shown)
VH: EVQLVESGGGLVQPGRSLKLSCAASGFTFSSYYMAWVRQAPTKGLEWVAYISNGGYSTYYRDSVKGRFTISRENAKSTLYLQMDSLRSEDTATYYCTITDHSGYRFTYWGQGTLVTVSS
VL: DIQMTQSPSLLSASVGDRVTLSCKASQSIYNSLAWYQQKLGEAPKLLIYDANSLQTGIPSRFSGSGSGTDFTLTISSLQPEDVATYFCQKYYSGNTFGAGTKLELKRA
B3: rLA212: anti-human LAG-3 rat monoclonal antibody; heavy chain variable region SEQ ID No: 6, light chain variable region SEQ ID No: 8 (antibody, listed as Rattus norvegicus, V domains shown)
VH: EVQLVESGGGLVQPGRSLKLSCAASGFTYRSYVMAWVRQAPTRGLEWVASISTGGGNTYYRDSVKGRFTISRDNAKNTLYLQMDSLRSEDTATYYCAEDMSNSGYGLFDYWGQGVMVTVSS
VL: NIVMTQSPKSMSISVGDRVTMNCKAGQNVDNNIAWYQKKPGQSPKLLIYYASNRNTGVPDRFTGGGYGTDFTLTINSVQAEDAAFYYCQRISNSPYTFGAGTELELKRA
B4: rLA225: anti-human LAG-3 rat monoclonal antibody; heavy chain variable region SEQ ID No: 10, light chain variable region SEQ ID No: 12 (antibody, listed as Rattus norvegicus, V domains shown)
VH: EVQLVESGGGLVQPGRSMKLSCVASGFTFSNYYMAWVRQAPTKGLEWVASISTGGGNTYYRDSVKGRFTISRDNAKSTLYLQMDSLRSEDTATYYCARPPYGYNYGWFTYWGQGTLVTVSS
VL: DIQMTQSPASLSASLGETVTIECRASEDIHNGLVWYQQKPGKSPQLLIYNANSMHTGVPSRFSGSGSGTQYSLKINSLQSEDVASYFCQQYYNYPRTFGGGTKLELKRA
B5: rLA869: anti-human LAG-3 rat monoclonal antibody; heavy chain variable region SEQ ID No: 14, light chain variable region SEQ ID No: 16 (antibody, listed as Rattus norvegicus, V domains shown)
VH: EVQLVESGGGLVQPGRSLKLSCAASGFTYRTYVMAWVRQGPTQGLEWVASISTGGVSTYYRDSVKGRFTISRDNAKNTLYLQMDSLRSEDTATYYCAKDMLNGYNSQGLFDYWGQGVMVTVSS
VL: NIVMTQSPKSMSISVGDRVTMNCRASQNVDNTIAWYQQKPGQSPKLLIYFASDRYTGVPDRFTGGGYGTDFTLTINSVQAEDAAFYYCQRIYNSPLTFGSGTKLEIRRA

These molecules were tested against T1, human PHA blasts expressing LAG-3 (assay: Binding activity to activated human T cells (PHA blasts) by flow cytometry). Conditions: mean fluorescence intensity.
Experimental: It was further confirmed by flow cytometry that the antibody produced by the hybridomas determined to be positive by the Cell-ELISA in Example 1)-3 binds to PHA (phytohemagglutinin) activated human T cells (PHA blasts), a more physiologically relevant cell type expressing LAG-3. To human PBMCs stimulated with 2 μg/mL of PHA (manufactured by Sigma-Aldrich) for three days, was added a hybridoma culture supernatant for suspension, followed by reaction at 4° C. for 30 minutes. After washing with a FACS buffer (PBS, 0.1% BSA, and 0.1% sodium azide), a secondary antibody such as an Anti-Rat IgG PE conjugate (manufactured by Jackson ImmunoResearch Laboratories, Inc.) diluted 200-fold with a FACS buffer comprising a LIVE/DEAD Fixable Dead Cell Stain Kit-near-IR fluorescent reactive dye (manufactured by Invitrogen Corp.) was added thereto for suspension, followed by standing at 4° C. for 30 minutes. After washing with a FACS buffer, the cells were resuspended in PBS containing 1 to 2% paraformaldehyde, followed by detection using a flow cytometer (CantoII: manufactured by Becton, Dickinson and Company or FC500: manufactured by Beckman Coulter Inc.). The data was analyzed using FlowJo (manufactured by Tree Star Inc). After removal of the LIVE/DEAD Fixable Dead Cell Stain Kit-near-IR fluorescent reactive dye-positive dead cells by gating, a histogram of the fluorescence intensity of the living cells was plotted.
The binding activity of the rat anti-human LAG-3 antibodies rLA204, rLA212, rLA225, rLA869, and rLA1264 purified by the method described in Example 1)-7 to activated human T cells was investigated.

Molecule | binding to activated human T cells (PHA blasts)
B1 | bound to PHA blasts prepared as in vitro activated human T cells in a concentration-dependent manner
B2 | bound to PHA blasts prepared as in vitro activated human T cells in a concentration-dependent manner
B3 | bound to PHA blasts prepared as in vitro activated human T cells in a concentration-dependent manner
B4 | bound to PHA blasts prepared as in vitro activated human T cells in a concentration-dependent manner
B5 | bound to PHA blasts prepared as in vitro activated human T cells in a concentration-dependent manner

The molecules below were run against T2, binding of LAG-3 to MHC class II molecules (Homo sapiens, UniProt P18627) (assay: LAG-3/MHC class II binding test (LAG-3-Fc binding to Raji cells, flow cytometry)). Conditions: rat antibodies evaluated at 10 μg/mL.
T2 construct: purchased R&D Systems, Inc
T2 sequence (P18627 with tags, fused parts or gaps limits assumed): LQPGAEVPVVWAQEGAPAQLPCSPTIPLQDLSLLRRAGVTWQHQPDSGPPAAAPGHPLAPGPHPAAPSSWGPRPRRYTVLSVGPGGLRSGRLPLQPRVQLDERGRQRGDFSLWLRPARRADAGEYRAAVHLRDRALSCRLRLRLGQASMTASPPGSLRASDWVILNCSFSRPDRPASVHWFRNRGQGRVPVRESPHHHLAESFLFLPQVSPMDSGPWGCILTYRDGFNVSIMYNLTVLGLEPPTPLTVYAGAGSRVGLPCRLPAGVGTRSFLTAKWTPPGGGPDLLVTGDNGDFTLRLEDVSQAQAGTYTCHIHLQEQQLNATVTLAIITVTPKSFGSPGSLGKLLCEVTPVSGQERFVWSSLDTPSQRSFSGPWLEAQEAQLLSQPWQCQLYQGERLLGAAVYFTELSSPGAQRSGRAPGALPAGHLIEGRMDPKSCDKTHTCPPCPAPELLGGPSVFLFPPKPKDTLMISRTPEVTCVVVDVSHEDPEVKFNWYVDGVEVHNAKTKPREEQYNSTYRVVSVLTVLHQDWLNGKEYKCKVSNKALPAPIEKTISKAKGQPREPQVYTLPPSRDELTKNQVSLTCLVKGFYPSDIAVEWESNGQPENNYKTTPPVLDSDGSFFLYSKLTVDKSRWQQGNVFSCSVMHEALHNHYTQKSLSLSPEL
Experimental: This was conducted according to a previous report (Non Patent Literature 8). That is, 20 μL/well of LAG-3-Fc (manufactured by R&D Systems, Inc.) diluted with RPMI1640 containing 10% FBS to 25 nM was added to a 96-well U-bottom microplate, and 20 μL/well of the hybridoma culture supernatant was added thereto, followed by stirring and standing at 4° C. for 20 minutes. Then, 10 µL/well (2.5×10^5 cells/well) of Raji cells, which endogenously highly express MHC class II molecules, was added thereto, followed by stirring and standing at 4° C. for a further 30 minutes. The cells were washed twice with PBS or a FACS buffer, then an Anti-Human IgG PE conjugate (manufactured by Jackson ImmunoResearch Laboratories, Inc.) diluted 200-fold with a FACS buffer was added thereto for suspension, followed by standing at 4° C. for 20 minutes. After washing with PBS or a FACS buffer, the cells were resuspended in PBS containing 1 to 2% paraformaldehyde, followed by detection using a flow cytometer (CantoII: manufactured by Becton, Dickinson and Company or FC500: manufactured by Beckman Coulter Inc). The data was analyzed using FlowJo (manufactured by Tree Star Inc.), and the percentage of inhibition was calculated by the following formula. Percentage of inhibition (%)=100−(A−B)/(C−B)×100 • A: Mean fluorescence intensity of each sample well • B: Mean fluorescence intensity of background
When adding LAG-3-Fc and the antibody, 20 μL of a medium was added each time. Except for that, the same operation as in the sample well was performed. • C: Mean fluorescence intensity of maximum binding
When adding the antibody, 20 μL of a medium was added thereto.

inhibitory activity in the LAG-3/MHC class II binding test | Molecule
almost no inhibitory activity | B1
almost no inhibitory activity | B2
almost no inhibitory activity | B3
almost no inhibitory activity | B4
almost no inhibitory activity | B5
